± gives the uncertainty stated by the source.
Experiment: protein stability index of a GFP-peptide fusion (yeast GPS) (PSI 1-4); higher = more stable; sorted into four equal gates, so the index is relative within each strain
Outline: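 The protein stability index of a peptide was calculated by multiplying its read frequency in each gate by that gate's number and adding the products. The peptides were tiled 17-residue stretches of yeast proteins, fused downstream of GFP on a Cherry-expressing plasmid and carried in yeast as a pooled library. Mid-log cultures in leucine-free medium were sorted into four equal gates by GFP/Cherry ratio, and each gate's plasmids were PCR-amplified and Illumina-sequenced.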

Sequence | protein stability index (doa10∆) | protein stability index (pdr5∆) | protein stability index (san1∆) | protein stability index (ubr1∆)
GVIDDSFDVAISTACPR [SMC4] | 2.59 ± 0.077 | 3.09 ± 0.046 | 2.45 ± 0.058 | 2.7 ± 0.049
GVNELAPIPKGRVKYTK [POP1] | 3.05 ± 0.08 | 2.87 ± 0.06 | 3.17 ± 0.066 | 2.67 ± 0.069
GVPDDKWEQTYKKPTGG [FAS1] | 3.38 ± 0.07 | 3.29 ± 0.1 | 3.2 ± 0.093 | 3.09 ± 0.069
GVQTAYIDYSSKRYIPS [RRP40] | 2.43 ± 0.067 | 2.61 ± 0.057 | 2.48 ± 0.1 | 2.33 ± 0.068
GYILEGEELAFYLRRLT [RPS8A] | 1.26 ± 0.078 | 1.41 ± 0.07 | 1.24 ± 0.17 | 1.31 ± 0.25
GYTQHGGLRPFGVSFIY [PRE9] | 2.67 ± 0.22 | 2.03 ± 0.098 | 1.84 ± 0.1 | 1.65 ± 0.064
HASFLCSFITQDKMFVS [FAS1] | 2.01 ± 0.063 | 1.64 ± 0.056 | 1.35 ± 0.1 | 1.35 ± 0.033
HATVVPPEEFSNTIDEL [SRB7] | 3.19 ± 0.071 | 3.25 ± 0.09 | 2.89 ± 0.1 | 3.02 ± 0.089
HCYPRQLCQITCQILES [RRP46] | 1.8 ± 0.059 | 1.9 ± 0.058 | 1.72 ± 0.088 | 2 ± 0.048
HDEKTLAPSKHQPITSE [SIR4] | 2.08 ± 0.088 | 2.27 ± 0.1 | 2.33 ± 0.12 | 2.27 ± 0.22
HDKNIQKLLKQLDSDAN [ISW2] | 2.58 ± 0.049 | 2.52 ± 0.049 | 2.69 ± 0.053 | 2.93 ± 0.032
HDSILHSRILPKKALKV [RRP43] | 2.08 ± 0.038 | 2.04 ± 0.041 | 1.68 ± 0.079 | 1.75 ± 0.034
HDVGELFWKVKEEEGSF [PRE2] | 2.71 ± 0.081 | 2.97 ± 0.08 | 2.92 ± 0.064 | 2.86 ± 0.07
HEFKLIVGKKIQEFLVV [GRR1] | 2.73 ± 0.046 | 2.09 ± 0.062 | 2.38 ± 0.076 | 2.4 ± 0.059
HELGINIDSLKFNELVK [BRR2] | 2.89 ± 0.07 | 2.93 ± 0.058 | 3.08 ± 0.054 | 2.9 ± 0.06
HELPRYGITHGLTNWAA [RPL5] | 2.44 ± 0.045 | 2.42 ± 0.035 | 2.47 ± 0.048 | 2.25 ± 0.035
HFPINVNIVEKDGAKFI [RPL9A] | 2.58 ± 0.069 | 2.57 ± 0.079 | 2.53 ± 0.065 | 2.5 ± 0.07
HGAASFLKERLMEASDA [RPB2] | 1.37 ± 0.15 | 1.48 ± 0.09 | 1.1 ± 0.18 | 1.03 ± 0.087
HGIKDIPIGHVHVIHFQ [AAR2] | 2.89 ± 0.06 | 2.86 ± 0.058 | 2.87 ± 0.059 | 2.75 ± 0.041
HGKRRSQVVETHKVTDI [YMR129W/POM152] | 3.35 ± 0.13 | 3.01 ± 0.13 | 3.18 ± 0.064 | 3.2 ± 0.058
HHAIEEAESLLQFHVAT [RPO21] | 2.67 ± 0.094 | 2.89 ± 0.13 | 2.64 ± 0.11 | 2.94 ± 0.087
HHYRPDMTTEEGLDLLK [PRE1] | 3.32 ± 0.19 | 3.41 ± 0.17 | – | 3.53 ± 0.093
HIIQAKADAQREKALNE [RPL19A] | 3.29 ± 0.19 | 3.38 ± 0.094 | 3.33 ± 0.086 | –
HIRKASSKKSKRLDKVG [LRP1] | 3.21 ± 0.087 | 2.78 ± 0.1 | 2.97 ± 0.061 | 2.95 ± 0.066
HITSVPISAVLRGCKFL [GRR1] | 1.77 ± 0.044 | 1.66 ± 0.048 | 1.86 ± 0.064 | 2.05 ± 0.037
HIVQDCTLTADGAYALS [ASC1] | 2.37 ± 0.057 | 2.69 ± 0.062 | 2.52 ± 0.12 | 2.44 ± 0.064
HKDIPEEDFYTVVGNAS [DSN1] | 2.94 ± 0.091 | 2.91 ± 0.18 | 2.73 ± 0.1 | 3.19 ± 0.062

Sequence | protein stability index (doa10∆) | protein stability index (pdr5∆) | protein stability index (san1∆) | protein stability index (ubr1∆)
HKHREARGLTATGKKSR [RPL15A] | 3.58 ± 0.2 | 3.37 ± 0.15 | 3.31 ± 0.069 | 3.15 ± 0.068
HKISFSGTKSEVLTYVN [YJL039C/NUP192] | 2.65 ± 0.093 | 2.49 ± 0.082 | 2.39 ± 0.11 | 2.7 ± 0.087
HKKKRSNAAGADDAISM [SRB8] | 3.06 ± 0.11 | 2.45 ± 0.067 | 2.83 ± 0.18 | 2.75 ± 0.054
HKNERRVLEIQTSLVRM [SKI6] | 2.99 ± 0.091 | 2.63 ± 0.078 | 2.44 ± 0.13 | 2.96 ± 0.053
HKSLIRSISWAPSIGRW [YGL100W/SEH1] | 2.81 ± 0.12 | 3.1 ± 0.11 | 2.21 ± 0.22 | 3.1 ± 0.091
HKVQTKLTRELEKKFQD [RPS7A] | 2.43 ± 0.066 | 2.01 ± 0.06 | 2.37 ± 0.091 | 2.54 ± 0.048
HLALEIGEVYNDQVEKD [RPN1] | – | – | 3.41 ± 0.19 | –
HLDNSKSVFSSAGLDSA [RPN1] | 2.58 ± 0.064 | 2.69 ± 0.043 | 2.25 ± 0.063 | 2.15 ± 0.055
HLEEYGYLIQVLLTFLQ [YCS4] | 1.59 ± 0.078 | 1.35 ± 0.09 | 1.21 ± 0.17 | 1.13 ± 0.097
HLILDKLNQKYDIVKFL [GRR1] | 1.83 ± 0.041 | 1.66 ± 0.035 | 1.3 ± 0.1 | 1.81 ± 0.03
HLPCTIEAEEAEEIGVE [RPN8] | 1.8 ± 0.078 | 1.74 ± 0.082 | 2.59 ± 0.11 | 2.89 ± 0.053
HNGSHRTVAGFSNVELP [ARP7] | 3.1 ± 0.071 | 2.83 ± 0.07 | 2.72 ± 0.085 | 2.8 ± 0.048
HNGWVTSLATSAGQPNL [ASC1] | 2.32 ± 0.044 | 2.04 ± 0.049 | 2.09 ± 0.08 | 2.12 ± 0.052
HNSVKRYQIMLPEQLKS [SNM1] | 1.16 ± 0.042 | 1.59 ± 0.052 | 1.44 ± 0.1 | 1.74 ± 0.041
HPFIPLLKEKPNALKPL [RRP6] | 2.54 ± 0.065 | 2.7 ± 0.067 | 2.94 ± 0.076 | 2.71 ± 0.053
HPGYDCWLSNIDIQTQD [RRI1] | 2.72 ± 0.099 | 3.14 ± 0.091 | 3.08 ± 0.062 | 3.16 ± 0.075
HPNRVLEHLHSTAFQNT [COR1] | 2.79 ± 0.041 | 2.92 ± 0.047 | 2.4 ± 0.051 | 2.92 ± 0.045
HPTIYESLPQYVDFVPM [POP4] | 1.72 ± 0.045 | 2 ± 0.048 | 1.81 ± 0.056 | 1.78 ± 0.051
HPTTIESLREIPYGPDF [SEC65] | 3.06 ± 0.069 | 3.17 ± 0.06 | 3.01 ± 0.058 | 2.99 ± 0.049
HPVSLISFAIYSALNST [RRP42] | 1.53 ± 0.051 | 1.55 ± 0.058 | 1.62 ± 0.089 | 1.84 ± 0.045
HPYEYEIDHQEYSPEIL [RRP6] | 2.75 ± 0.048 | 2.69 ± 0.042 | 2.83 ± 0.059 | 2.76 ± 0.035
HQQRMSRTAADILLRLC [YCG1] | 2.48 ± 0.29 | 1.63 ± 0.2 | – | 2.66 ± 0.1
HRCAIRSGALIKFKKCD [SSN2] | 2.28 ± 0.096 | 2.26 ± 0.1 | 2.77 ± 0.054 | 2.49 ± 0.11
HRLTLEDPVTVEYLTRY [PRE6] | 3.33 ± 0.19 | 3.64 ± 0.24 | 3.01 ± 0.19 | 2.68 ± 0.22
HSDMASKMYNTDKKAFL [PRP8] | 2.91 ± 0.057 | 2.65 ± 0.056 | 2.89 ± 0.051 | 2.98 ± 0.059
HSPFPFNRTKGKMVRAQ [PRP8] | 1.84 ± 0.2 | 1.16 ± 0.14 | – | 1.05 ± 0.094
HSRKMNLTRGINLRKVA [RPT6] | 1.26 ± 0.075 | 1.36 ± 0.05 | 1.3 ± 0.11 | 1.2 ± 0.043
